From publication PMC11180644, “Discovery, characterization and mechanism of a Microbacterium esterase for key d-biotin chiral intermediate synthesis” (Bioresources and Bioprocessing, 2024) come the findings set out here.

Substrate in this series: COC(=O)[C@@H]1[C@H](C(=O)OC)N(Cc2ccccc2)C(=O)N1Cc1ccccc1
Description: HPLC of released monomethyl ester; Michaelis-Menten fit (GraphPad Prism). In kind it is biochemical, Microbacterium aurantiacum. The conditions noted are these: 0.2 mol/L PBS pH 8.0, 30 °C, 10 min, DMSO as substrate solvent, 0.1-12 mmol/L diester. From the text:
HPLC of released monomethyl ester; Michaelis-Menten fit (GraphPad Prism) on […]01 | the Km value

B1: EstSIT01 (Microbacterium aurantiacum) (protein)
chain: MTLFDGITSRIVDTDRLTVNILERAADDPQTPPDRTVVFVHGNVSSALFWQEIMQDLPSDLRAIAVDLRGFGGSEHAPVDATRGVRDFSDDLHATLEALDIPVAHLVGWSMGGGVVMQYALDHPVLSLTLQSPVSPYGFGGTRRDGSRLTDDDAGCGGGGANPDFIQRLIDHDTSDDAQTSPRSVFRAGYVASDYTTDHEDVWVESMLTTSTADGNYPGDAVPSDNWPGFAAGRHGVLNTMAPQYFDVSGIVDLAEKPPILWIHGTADAIVSDASFYDLNYLGQLGIVPGWPGEDVAPAQEMVSQTRDVLGRYAAGGGTVTEVAVEGAGHSAHLERPAVFRHALLEIIGYVGAAADPAPPTEAIIIRSAD
notes: C-terminal 6xHis tag, pET21a, E. coli BL21(DE3), Ni-NTA purified; catalytic triad Ser110-His330-Asp268
For B1, the Michaelis constant (Km) (as a rule, the concentration of substrate that gives half-maximal velocity) came out at 0.147 mmol/L and the kcat (as a rule, the maximal rate divided by the concentration of active sites) came out at 5.808 s⁻¹.
